Experimental data published in patent US12123042.

System: cytochrome C

Chain of S. rebaudiana CPR1 (cytochrome P450 reductase) (chain, as listed by the source): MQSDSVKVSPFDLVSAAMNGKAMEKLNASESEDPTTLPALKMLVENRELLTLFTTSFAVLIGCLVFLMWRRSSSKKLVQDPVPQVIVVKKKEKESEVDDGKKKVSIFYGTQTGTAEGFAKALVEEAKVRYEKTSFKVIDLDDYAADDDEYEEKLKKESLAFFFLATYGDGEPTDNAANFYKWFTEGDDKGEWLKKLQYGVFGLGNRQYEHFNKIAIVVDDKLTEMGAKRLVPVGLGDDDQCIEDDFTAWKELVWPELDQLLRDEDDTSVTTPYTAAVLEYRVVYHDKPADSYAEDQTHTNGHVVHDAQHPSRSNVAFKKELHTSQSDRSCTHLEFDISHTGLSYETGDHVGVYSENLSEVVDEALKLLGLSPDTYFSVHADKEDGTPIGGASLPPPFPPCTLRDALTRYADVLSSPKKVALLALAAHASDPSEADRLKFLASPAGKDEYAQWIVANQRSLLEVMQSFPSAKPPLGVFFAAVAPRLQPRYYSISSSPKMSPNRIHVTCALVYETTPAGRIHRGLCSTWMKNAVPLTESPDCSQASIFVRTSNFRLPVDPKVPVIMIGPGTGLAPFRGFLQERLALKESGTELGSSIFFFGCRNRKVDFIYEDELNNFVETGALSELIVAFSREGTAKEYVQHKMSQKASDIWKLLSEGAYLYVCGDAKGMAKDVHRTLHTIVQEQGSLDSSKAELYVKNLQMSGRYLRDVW

Substance: S. rebaudiana CPR1 (cytochrome P450 reductase)
- CPR activity (cytochrome C reductase assay, increase in absorbance at 550 nm, units/mg microsomal protein): 7- and 14-fold higher activity, respectively, compared to the negative control
